Experiment: soluble fraction after stress (log2 fold change); higher = more stays soluble; pooled small domains, quantitative proteomics
Conditions: stress: pH 4
Method in brief: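 Aggregation propensity is estimated from the fold change in each domain's soluble amount after acid stress. Pooled small-domain libraries were stressed at pH 4, and higher log2 values mean more stayed soluble.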

| Sequence | soluble fraction (log2) |
| --- | --- |
| HMAPGASEVPDLTSLPAREALLRLTKLGLLPEMEGTGRLVRQQPAAGTRVPKGSKVHLVFEPG | 0.0438 |
| HMGDFNYVMPDFRGLEAHDVSSFLNRNGFLLRPTEHEVSFTQRPGLILMHYPEPGYPFSRSSPITLVVS | -0.932 |
| HMITVEAPMPGKVLSVNVKAGDKVEAGDVLLILEAMKMQNEIMAPEDGTVSDVRVSAGDTVATGDVMVV | -0.33 |
| HMIDFIGLEAKLLSTISGEKMGNAEVIVDGNVMNIYVKSLDTSEIKFRENVLIIKQSDDKNYYLVAKP | -1.01 |
| HMSNSWSYSEFMKAVESGQVESVTISGQSIKGTSRGGQAFESVLPAFDDKLMDTLLVNDVEVIGEKP | -0.149 |
| HMPTEPTARELEVTTLLAQGLSNREIAGALFISEHTVRNHLGHVFSKLGVSSRTQAVVRAGQLGWLR | -0.798 |
| HMLLNSLIDTLAAEKATVVPGTEVFKLYDTYGFPWELTEEIASERGFTIDHEGFEAAMKEQRERAREARV | 0.0336 |
| HMGMNSGQADFRGISLALSVDAEAEAQRLFTALADGGQVQMPLSKTFFSPAFGMVADRFGVGWMVVTN | -0.0936 |
| HMVSNFEAEFGRHFAIFFPGSEFTELKLRLLEEGAELIDPIRDTPFERFFFKDPNGYIFEVIDKE | -2.33 |
| HMKIVQHQLQLPVHVAGKFKGMFYKSDFVMSEDYDDDGNMILAVRLPLVDWNKFLKRTDNELSQYIKVTP | -1.53 |
| HMRRNLSGEDTIVNRMAQWQYTQEQKNELHKMMDAGMPQEDILSVFYPEIKAEEMHRFLLAFQTAHNSG | -0.0487 |
| HMPISQGATVKHNANMRKGASTKYKVTGVLQEGEEVKILSQSNGWYKIQNSDNEKGWTYNTHINASDK | -0.0274 |
| HMNEVRINTAHIEHKYLGEVKVLDIQEMRNARGRDADPLAFLAIRFWSPRGVLVRVKDSRDATPYWLIS | -0.227 |
| HMAYLTVPAVIAKDTKKSIQLLESKGFEVVIQDSIYTDTLARGTVIKQLPDPNATVKINRTVYLTVNRYTP | -0.369 |
| HMQVEEKNKKIELYIEGKIKELESNLMYVPNENKKKLLMAFMNRNEDIEIIKTKIDTIFNKSVAAYKENM | -0.894 |
| HMVEVVDAEKLEERLSKVFSAAVLLEIYNENPAHGKEYAYLFTARKNAVEEMIENGQMKRETWEAK | -1.91 |
| HMAEVTLTVREQEVLHLLARGMSNGEMAAHLYVEPTTIKYHLTGLLQKTGSRDRLQAVLWGIRAGMVH | -1.15 |
| HMFPELSPEEQLIVEVLSKTNDLQVNLISVKTNIDISRLTSLLFTLEMKGVIKTFAGGMYHLL | -0.712 |
| HMQNNTIAFSKFLQEVDNGRVVQVEIQGNNINGILSDGSKFNTYSPNYPALVEKLSEKNVNIVASPV | 0.385 |
| HMQSSTAISFNQFQKSWLSNNIKSFQLGEDKMTVRGSLKNGTQYETIVPSERLFQFIGQHPKDGQVQEMY | ≥ 0.43 |
| HMDIPTSAEAVRAYLASGFIKGIGEATARMLVDKFGAETLEIIKTEPMKLTKISGIGPKKAKMIHESYLEK | -0.0191 |
| HMQPIAVHIGTENPMKSLSDLSVVRAQFTSGGRVIGSVAVLGPTRMQYSRIVGMMRFMQQRLDLLLKG | -0.0772 |
| HMFDGRSDAEKTLDLIKTAIDNILKGGAIQEYKIGTRTAKKYDMAELQVLKGEYAAMVAREKQAETMA | -0.481 |
| HMGNFQNIFRKLRTSSNLTQNAIAEKLGISRSTIGMYETGAREPDFETLEKIADYFNVDTDFLLGRTNQTT | -0.0101 |
| HMQKEIKVPDVANMALSEAVEKLQNEGFKVADEQKEVSSDEIEEGKVVKTSPVAGTKKTKGSEITIYISSG | 0.22 |

| Sequence | soluble fraction (log2) |
| --- | --- |
| HMTEGDRLARRILRLVRNKPNGYPEVELMKATVLDWNHFQRSISSLEMAGILERRDPGDGTPPVWVEKR | -1.11 |
| HMDASSAVQFGSLLRDARRRQGLSQAELGGDKYSGSYISHLESGRRVATPEVIEFLSRRLGVSPLEWGVS | -0.026 |
| HMITPAGVPPALLPVFDQFTLPDGTLRRGAVAAALRALYGPDAPQSGKRYQMEYDRVMAWHSQYFTSLH | -0.42 |
| HMGDKVTIPNLIDMKLTDAQNQYKPQGFSIVKNGERESDKEAGTILEQDKAAGTEISGKDIRIFVVVSSGS | -0.302 |
| HMNKKEQYQNIISNFLEKMSEEDRLIFNMHFFKSINISQIARSIDREGYYVKTKIENLLADLKSLMIGNNL | -1.17 |
| HMPASGISSEIIYDGILIEENLRQLKKDKAWLMDQLKKKGISSVSEVFLATLNKGGSLYIDKY | -0.0537 |
| HMPGTAAQARQLKAWLKENGEKPGAALPALQKAQEIYGYVPREVQQLIADALHKPLTEIYGVSTFYSQFNL | -0.326 |
| HMQNRIVNTTQGLAADKRGLLVADETGHTTRPGIFASGDVVNGARTVVEAVAHSKIVAESMHQYMQ | ≥ 0.43 |
| HMQLTDLSALEAIIKEVLAANPKSVEDYKSGKEKAFGSLVGQAMKATKGKANPETVNSLLRKNLN | -0.0162 |
| HMPASDPNEKQILRFLTEHQVITRKETQALLDVSQSTAGRVLKAMVDNGQIKQLGGSRNTRYELPM | 0.149 |
| HMDPTLFRLNILEGLGLEKKNLTSEEQEQLRFLYEHFSMKEILMTIDYIKKLNLEKSIVNLYRLMQHP | -0.581 |
| HMNPFPDNTAEVLSQFKNIIVPELNTGQLSKLLRARYLVDTVGINKVEGLPFTAQELEEKIESLINSF | -0.705 |
| HMLGERIRRLRKEMGMSVTELARRVKTSPSYISEIEKGEKTPSLNLLVRIASELRTGIDYLTGL | -0.00698 |
| HMNFNYPVIVKNSRINVSGVLSAAKLYTINGQLLQSYKGSGEFTSKTLTKGIYILQVDNARTKVLV | ≥ 0.43 |
| HMAGYDTYMVDRDAELLPWLLETLQRESRSKVKATLQGNGIKVNGKRVTQFNYPLKAGMKVSVSKSK | 0.129 |
| HMDSADADLLRRIEDLLSSRRSVIREARLADMLGVPRDQVARALDLLQERGVIGLTTDSGMKRIAFRRN | 0.111 |
| HMDFTMSEIQTAMAALPRGYRTVVQLYLVDGYSHKEIAEMLGVDVNTSKSQLSRGRKQLQAFLAAMS | -0.602 |
| HMSGTGSYVALLRDPQGNVGKVVVKGSKGEQVLSQPQQAARLDGATPSYEVTGRQIAEDFGRALAV | -0.198 |
| HMTRYEQLAAQIRQQIEDNIWQSGDRLPSLRDTVKQSGLSLMTVLQSYQLLESQGWITARPQSGYYVAHR | -0.169 |
| HMNEFSYLSELGSEKGDLIKGLQLVQSREGYVSDDAIRAISKHFSIAEAEVEGVLTFYAQFK | -1.25 |
| HMVEMPEVGVKVRIEVESHNGSTNFEGIVLHPASKGHLTLKLINGYNASYLIEEIRNLEIIDSS | -0.763 |
| HMTPQEQWNNAYLLAKDYYDANGNLDIDEKYKTKDGFELGSWLTTQRNVYKRGKLSPEKTKKLEEIGISF | -0.107 |
| HMEDIAAIAQRIQGLRDIVGISVEEMAKALDISEQEYREYEKGETDFSFSFLYTVANVLGINITDLI | -1.56 |
| HMDRPLRTKEHFARFAGEQVVVKTSSPIDGRSSFTGTLEGMEGDDVIVEVDGSRIAIGYSLIKRAHVVG | 0.406 |
| HMEPTPREIVVQQLGYRGLEVLGNAEYQFPKETQIIILKLAELISSGSVTETLEGGKLLALFRGVGINVR | -1.36 |

| Sequence | soluble fraction (log2) |
| --- | --- |
| HMLELDRTNLLGVFGSKSNPYALIMLSNGEMLKLSIGDQFLGWRVYAIDQTTVHVQNGKNQEILRIP | -0.772 |
| HMIAKEDDGTAFLIDGKISSEEEFKTISKDDILEVFVYKETEIAQKKLDSINSINNTYYTSLIEILLKE | -0.854 |
| HMPTYEEAKTYLKAAFEHIVAAGRDVGELVEFAFAKSGDAVAPYLRRFLSDVHEGRITIQGLTESAKLAV | -0.463 |
| HMSAEKPVKSELFYKSMLNSFEQAVRFMIANGILEDFKSRIVAINNETNHQNWFNKQEFNAIIERF | -0.032 |
| HMQFLGKVTVTHARQANLRAQPSMDAAIVGKVNPGEVYNVVSIPKTSWYEIQLQNGKTVFIAAGMVSFRM | 0.209 |
| HMARTIINLPLRNSVDESYNTTVNILQANGFKEVSYNGETVWKKGTGLLTAMQYIKIEFTDTTLVVSGWVQ | -0.11 |
| HMQKMPEMQILPNGKVKLPDFSGINMRKAAELLQYGKLRLQPYGSGTAYQQKPAAGTEVDEGTVVEIWF | 0.189 |
| HMLTLEDMTRINSIISPRIKKGQSLYHIAKNNGDELNISESTLRRLVMTGEMDAGIIDLPQAVK | -0.333 |
| HMARGATELPYSQLLDRVEAGEITTATTQGNTLLSTARDGKRYITYLPLDTMDEVVPRLDAANVEVKTER | -0.123 |
| HMTSKTLSADGGENTRLDKFLSNHLPEISRTKIQKMINDGLVYVNQNYAKASLVLDGTELISYTIPD | 0.263 |
| HMAAELHPYGADSYRGDNPPAGYEIKAKEESKKFHTPSSPWYGRTIAEIWFRTEEAAEAAGFINAVK | -0.272 |
| HMASALDFGRYVRSQYSLQEFPLILIAPLNDPHPKEVVRELFNLYLTKPITRSRLFDSLMTVLG | -0.499 |
| HMGAGLLEPEPLKIEIQETQERLQKLQKALERDTETADSKERIKRAIEAHKARISQLQGLIE | 0.0704 |
| HMRDSWNEATKEKRYTEAYDALNSALKKTPATPHALSDALWIARELGRTNEEVQRLEWRLYALLTWIS | -0.0517 |
| HMAATHYEGIKQDGETDDAVIERVLTGLSVTANKDDIFIVKTLIAGTKYSYTAYVYNGNAWAAM | -0.255 |
| HMLHIKKGDTVIVNAGESKGQQGKVLEVLVGKERAIVEGVNMVSKHTKPNAKNPQGGIVKKEAPIHISNLQ | 0.0699 |
| HMGGRSARVRRAVLDAVVELLGEGGVRAVTIAEVAKRSGVNASSIYRRWRSIDALILDAAQDL | -0.578 |
| HMPDLSGEEQQIVDILAQRGNLQINTLVVETDIPVHKMNAILFELEMKGVVRVLAGGMYQLL | -0.561 |
| HMSINQIADKGYITRLIDNNANIKDVLYYDASSRILAIEDPKYMFYLKNTDWNQFAKEMGFKLE | -0.556 |
| HMFGQRLRLARKRAGLSMQALAQRMSPPVTAQAISKYEADRMMPSSAVLVGLGKALGVSLDFLMGGQ | 0.068 |
| HMTGSLLVEVQGRPDADRLLGQALVDAGLTARPAGGALIEVEVRDETTPDVVRDLTVDLGLGLVRMQERH | -1.01 |
| HMRHDSEGYYRLIGVPPDADDAELKEAAKKRLMEAHPDHGGSEDEFVEVYRAYRTLTDPSARAEYDARP | -0.133 |
| HMDVKQSAAGVAGRIRFELNRTLTGQGHEKFTSASQAIGPRPAAELARRLFNSGSVVGVHVFANIVTVDLL | 0.088 |
| HMKMAKTIKEIAEEIGVSKQAVFKKIKQVPLSTEIEKFISTVDGKKLVSVDGENLIKQAFQR | 0.255 |
| HMLNPVEKLLLLSQLYIGRLKGSFVVKEKHHKSTILGEVRELSPEEITLKTDEGYRLIRVDDILTIQL | -0.704 |
